# Source: patent publication US7632650B2, “Diagnostics and therapeutic uses of topors” (University of Medicine and Dentistry of New Jersey, priority 2002, dated 2009)
# T1: top1 (Homo sapiens, UniProt P11387)
# T1 sequence (P11387 1-765): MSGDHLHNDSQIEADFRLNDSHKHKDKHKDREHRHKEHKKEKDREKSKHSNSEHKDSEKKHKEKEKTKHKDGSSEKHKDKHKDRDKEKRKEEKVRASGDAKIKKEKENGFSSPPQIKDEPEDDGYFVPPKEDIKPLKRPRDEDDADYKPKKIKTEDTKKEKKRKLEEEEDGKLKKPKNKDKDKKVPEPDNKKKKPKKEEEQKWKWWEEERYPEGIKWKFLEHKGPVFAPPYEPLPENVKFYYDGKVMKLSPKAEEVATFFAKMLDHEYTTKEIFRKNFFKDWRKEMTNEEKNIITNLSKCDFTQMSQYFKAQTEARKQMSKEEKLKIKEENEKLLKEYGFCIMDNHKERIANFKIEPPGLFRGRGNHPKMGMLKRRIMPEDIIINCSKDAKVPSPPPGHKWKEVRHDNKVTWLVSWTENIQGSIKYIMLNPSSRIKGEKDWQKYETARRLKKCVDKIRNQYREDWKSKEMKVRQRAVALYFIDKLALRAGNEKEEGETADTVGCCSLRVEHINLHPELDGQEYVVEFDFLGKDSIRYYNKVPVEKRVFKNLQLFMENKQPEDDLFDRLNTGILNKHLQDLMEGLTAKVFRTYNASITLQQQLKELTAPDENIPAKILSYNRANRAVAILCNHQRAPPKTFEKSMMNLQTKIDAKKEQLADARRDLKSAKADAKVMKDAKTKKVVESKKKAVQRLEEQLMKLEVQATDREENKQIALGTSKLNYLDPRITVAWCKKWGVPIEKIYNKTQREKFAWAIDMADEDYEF
# T2: IkBα (Homo sapiens, UniProt P25963)
# T2 sequence (P25963 1-317): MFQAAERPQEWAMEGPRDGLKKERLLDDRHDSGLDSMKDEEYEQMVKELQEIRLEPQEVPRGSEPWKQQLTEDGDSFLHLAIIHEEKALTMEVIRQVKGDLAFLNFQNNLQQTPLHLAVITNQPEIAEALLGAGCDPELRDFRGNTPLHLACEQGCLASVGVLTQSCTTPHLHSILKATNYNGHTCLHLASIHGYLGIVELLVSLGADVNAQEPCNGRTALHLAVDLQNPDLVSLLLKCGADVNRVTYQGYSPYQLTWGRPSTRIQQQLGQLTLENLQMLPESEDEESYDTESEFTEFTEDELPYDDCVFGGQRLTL
# B1: topors: RING protein that binds topoisomerase 1 and p53; dual E3 ubiquitin/SUMO ligase (protein)
# chain: MGSQPPLGSPLSREEGEAPPPAPASEGRRRSRRVRLRGSCRHRPSFLGCRELAASAPARPAPASSEIMASAAKEFKMDNFSPKAGTSKLQQTVPADASPDSKCPICLDRFDNVSYLDRCLHKFCFRCVQEWSKNKAECPLCKQPFDSIFHSVRAEDDFKEYVLRPSYNGSFVTPDRRFRYRTTLTRERNASVYSPSGPVNRRTTTPPDSGVLFEGLGISTRPRDVEIPQFMRQIAVRRPTTADERSLRKIQEQDIINFRRTLYRAGARVRNIEDGGRYRDISAEFFRRNPACLHRLVPWLKRELTVLFGAHGSLVNIVQHIIMSNVTRYDLESQAFVSDLRPFLLNRTEHFIHEFISFARSPFNMAAFDQHANYDCPAPSYEEGSHSDSSVITISPDEAETQELDINVATVSQAPWDDETPGPSYSSSEQVHVTMSSLLNTSDSSDEELVTGGATSQIQGVQTNDDLNNDSDDSSDNCVIVGFVKPLAERTPELVELSSDSEDLGSYEKMETVKTQEQEQSYSSGDSDVSRCSSPHSVLGKDEQINKGHCDSSTRIKSKKEEKRSTSLSSPRNLNSSVRGDRVYSPYNHRHRKRGRSRSSDSRSQSRSGHDQKNHRKHHGKKRMKSKRSRSRESSRPRGRRDKKRSRTRDSSWSRRSQTLSLSSESTSRSRSRSSDHGKRRSRSRNRDRYYLRNNYGSRYKWEYTYYSRNKDRDGYESSYRRRTLSRAHYSRQSSSPEFRVQSFSERTNARKKNNHSERKYYYYERHRSRSLSSNRSRTASTGTDRVRNEKPGGKRKYKTRHLEGTNEVAQPSREFASKAKDSHYQKSSSKLDGNYKNESDTFSDSRSSDRETKHKRRKRKTRSLSVEIVYEGKATDTTKHHKKKKKKHKKKHKKHHGDNASRSPVVITIDSDSDKDSEVKEDTECDNSGPQDPLQNEFLAPSLEPFETKDVVTIEAEFGVLDKECDIATLSNNLNNANKTVDNIPPLAASVEQTLDVREESTFVSDLENQPSNIVSLQTEPSRQLPSPRTSLMSVCLGRDCDMS
# Legend:
# [1] = system: HeLa cells expressing GFP-topors or GFP-PML; experiment: imaging of GFP-topors or GFP-PML in nuclear bodies before and after treatment; type: cell-based, human; settings: 10 μM, thirty minutes
# Description: Acute promyelocytic leukemia, a type of cancer affecting the blood, is characterized by an abnormal block in the development of stem cells. It has now been discovered that topors localizes in nuclear bodies associated with promyelocytic leukemia (PML) oncogenic domains. In these experiments HeLa cells were immunostained with antibodies recognizing both topors and PML. Separate and merged fluorescent images from a representative cell were analyzed. PML nuclear bodies are nuclear depot sites, which are disrupted in cells from patients with promyelocytic leukemia with t (15;17) . Topors relocalized to the nucleoplasm after DNA damage. […] In these experiments, HeLa cells expressing GFP-topors or GFP-PML were imaged before and after treatment with 0.1% DMSO, 10 μM DRB, 10 μM CPT, or 30 μM cycloheximide for thirty minutes.
# top1 = target: T1, top1; experiment: in vitro top1 sumoylation with purified components; type: biochemical; settings: purified sumo conjugation components, purified top1 and topors
# Description: Topors is homologous in the RING domain to proteins implicated in conjugation of ubiquitin and SUMO, such as MDM2 and BRCA1. Previously, it has been shown that topors binds to the N-terminus of top1. […] Topors also redistributes from PML (promyelocytic leukemia) nuclear bodies to a diffuse nuclear localization when exposed to CPT. When incubated with a HeLa cell fraction containing SAE1/SAE2, purified SUMO-1, and purified Ubc9, minimal top1-SUMO conjugates could be detected using Top1 and SUMO antibodies.
# Using purified components of the sumo conjugation system as well as purified top1 and topors, top1-SUMO conjugates were detected. Removing any of the sumoylation components or topors abrogated top1 sumoylation.
# p53 = p53 (Homo sapiens, UniProt P04637); experiment: in vitro sumoylation of p53; type: biochemical; settings: E1 and Ubc9
# Description: (§1) Reaction products were analyzed using monoclonal anti-p53 and polyclonal anti-IkBα antibodies.
# IkBα = target: T2, IkBα; experiment: in vitro sumoylation of IkBα; type: biochemical; settings: E1 and Ubc9
# Description: as §1
# ubiquitin = experiment: in vitro ubiquitination reaction with E1, E2 proteins and ubiquitin; type: biochemical; settings: 400 ng E1, 200 ng E2, 3 μg ubiquitin, ~100 ng GST-topors or GST
# Description: This analysis was carried out using reactions containing 400 ng E1, 200 ng of various E2 proteins, 3 μg of ubiquitin, and either ˜100 ng GST-topors or GST. Reaction products were resolved by SDS-PAGE under reducing conditions. Migration of probable poly-ubiquitin chains was determined. All E2s were active as assessed by thiolester formation.
# mammalian cells = experiment: SUMO-2 conjugate formation in cells; type: cell-based
# Excerpt: Additionally, it was shown that topors functions as an E3-type ubiquitin ligase an E3-type SUMO ligase for topoisomerase and p53. Thus, topors is a dual function ubiquitin and SUMO ligase. Recombinant topors enhances formation of polyubiquitin conjugates by specific E2 ubiquitin enzymes in vitro, with the RING domain necessary and sufficient for this activity. While topors-induced ubiquitination of bacterially expressed top1 was unable to be detected in vitro, similar assays using Ubc9, SAE1/SAE2, and SUMO-1 indicate that topors stimulates formation of top1-SUMO-1 conjugates by Ubc9. […] Instead, this activity maps to the 536-704 region, which contains a nuclear localization sequence and is within the top1-binding region. Ectopic expression of topors in HeLa cells increases formation of SUMO-2 conjugates.
# as §1
# [2] = system: cervical cancer cell line; experiment: overexpression of topors in cancer cell line; type: cell-based
# Excerpt: The topors protein was not detected in lysates from several different tumor cell lines. In this regard, in matched normal and tumor human tissue specimens, the topors protein was detectable only in normal tissues (FIGS. 3 and 4).
# Sequence of p53 (P04637 whole entry, species assumed): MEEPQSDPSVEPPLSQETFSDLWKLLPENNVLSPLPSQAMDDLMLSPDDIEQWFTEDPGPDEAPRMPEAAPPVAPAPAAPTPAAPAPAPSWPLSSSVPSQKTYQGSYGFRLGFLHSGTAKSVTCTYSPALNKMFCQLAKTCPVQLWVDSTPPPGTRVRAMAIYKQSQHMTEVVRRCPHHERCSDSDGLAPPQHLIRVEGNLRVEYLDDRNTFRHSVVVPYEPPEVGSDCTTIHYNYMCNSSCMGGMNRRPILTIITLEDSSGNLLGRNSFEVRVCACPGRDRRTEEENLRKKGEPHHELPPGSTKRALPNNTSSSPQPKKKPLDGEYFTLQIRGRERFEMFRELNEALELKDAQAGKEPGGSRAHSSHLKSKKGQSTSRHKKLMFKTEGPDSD
molecule,measurement,setting,value
"CC[C@@]1(O)C(=O)OCc2c1cc1n(c2=O)Cc2cc3ccccc3nc2-1 [CPT, camptothecin]",dispersion of topors / PML from nuclear bodies,[1],induce rapid dispersion of topors but not PML from nuclear bodies
OC[C@H]1O[C@@H](n2cnc3cc(Cl)c(Cl)cc32)[C@H](O)[C@@H]1O [DRB],dispersion of topors / PML from nuclear bodies,[1],induce rapid dispersion of topors but not PML from nuclear bodies
B1,top1 sumoylation in vitro,top1,enhances top1 sumoylation in vitro
same,sumoylation of p53,p53,activates sumoylation of p53
same,sumoylation of IkBα,IkBα,not IkBα
same,E3 ubiquitin ligase function (poly-ubiquitin chains),ubiquitin,functions as an E3 ubiquitin ligase
same,SUMO-2 conjugates,mammalian cells,increases SUMO-2 conjugates
same,effect of overexpression on cancer cells,[2],cell death
